Drawing on article doi:10.1101/2023.01.06.522972 (2023), this text covers Kd for one molecule.

In this assay the target is Leishmania major actin (Leishmania major, UniProt P45520 2-376). Put plainly: ITC; ATP-actin.
Leishmania major actin, sequence (P45520 2-376): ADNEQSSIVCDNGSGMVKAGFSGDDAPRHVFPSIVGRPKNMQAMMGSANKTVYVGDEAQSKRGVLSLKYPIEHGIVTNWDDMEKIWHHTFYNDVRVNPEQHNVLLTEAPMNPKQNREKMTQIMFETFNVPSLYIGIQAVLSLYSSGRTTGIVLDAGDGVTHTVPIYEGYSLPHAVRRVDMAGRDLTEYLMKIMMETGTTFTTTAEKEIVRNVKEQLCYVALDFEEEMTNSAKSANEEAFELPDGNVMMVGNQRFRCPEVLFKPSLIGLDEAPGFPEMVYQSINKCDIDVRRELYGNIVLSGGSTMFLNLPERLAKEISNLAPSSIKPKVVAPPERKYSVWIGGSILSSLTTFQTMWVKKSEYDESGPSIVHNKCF

B1: Leishmania major profilin, wild type (natural protein)
chain: SWQAYVDDSLIGSGNMHSAAIIGAADGSYWAYGGSYVPQPEEVQHIQKCLSDFSFVQSSGVNIYGVKFFGLQCGTDGDCKYIFFKKGAAGGCIYTTKQAFIVAVYGNPGDTSSLQQDLEKNTAHAVTVNPADCNTTVKRIADYLIKLGY
A word on the Kd: it is a measure of binding affinity in units of concentration. The low end stands for tighter binding, the high end for weaker binding. B1 returned a Kd of 71.8 nM.
